Test results reported in article PMC12219679, “High yield purification of an isoleucine zipper-modified CD95 ligand for efficient cell apoptosis initiation and with biotin or DNA-oligomer binding domain to probe ligand functionalization effects” (BMC Biotechnology, 2025).
Several values for one entry are separate records, joined by “and”; a condition that tells them apart may be missing. Identical values can stand only once.

T1: FLAG-CD95L (Enzo) (UniProt P48023 130-281)
T1 construct: CD95 ligand (CD95L, Fas ligand), soluble commercial protein with a FLAG tag; No catalogue number is printed; source: bought: Enzo Life Sciences
T1 sequence (looked up): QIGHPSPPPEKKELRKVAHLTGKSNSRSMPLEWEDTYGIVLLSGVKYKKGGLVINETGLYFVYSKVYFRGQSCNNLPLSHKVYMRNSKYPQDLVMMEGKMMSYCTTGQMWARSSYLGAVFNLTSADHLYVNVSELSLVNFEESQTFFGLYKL


How the values were obtained:
FLAG-CD95L (Enzo) = biological target: T1, FLAG-CD95L (Enzo); test: ELISA; CD95-His coated at 2 µg/ml in PBS overnight at 4 °C; biotin-IZ-CD95L or FLAG-CD95L 0.1 nM to 100 nM in 0.5% BSA/PBST, 2 h at r.t.; detected with anti-CD95L antibody and HRP secondary; 4-parameter logistic fit; conditions: both partners purified
[1] = biological target: the molecule itself; test: SEC; Superdex 75 10/300 GL (Fig. 3A) or ENrich SEC 70 10 x 300 (Fig. 3B, C); PBS pH 7.4, 0.3 ml/min; sizes from a standard curve of protein standards; peak shares from Gaussian fits

Row | Kd (FLAG-CD95L (Enzo)) [nM] | Binder | stoichiometry N [1]
1 | 11.3 | CD95-His (Sino Biological) (receptor, UniProt P25445 26-173, looked up, CD95 (Fas, Apo-1), soluble commercial protein with a His tag; No catalogue number is printed; In the functional rows on Hela WT cells the CD95 is the endogenous receptor of the cells; this molecule stands for it; also called Fas; Apo-1; source: bought: Sino Biological) QVTDINSKGLELRKTVTTVETQNLEGLHHDGQFCHKPCPPGERKARDCTVNGDEPDCVPCQEGKEYTDKAHFSSKCRRCRLCDEGHGLEVEINCTRTQNTKCRCKPNFFCNSTVCEHCDPCTKCEHGIIKECTLTSNTKCKEEGSRSN | 
2 |  | His-IZ-CD95L (His8-TEV-Cys-IZ-CD95L, secreted form without the IL2 signal peptide) (ligand, TEV protease cleavage site ENLYFQ, extra cysteine, isoleucine zipper (IZ, variant of the GCN4 leucine zipper) and linker; stands after the His8 tag in the printed insert; CD95 ligand (CD95L, Fas ligand, CD178, TNFSF6), human, extracellular domain, amino acids 137-281, without the stalk region; Origin: a designed isoleucine zipper joined to a natural stretch of CD95L; also called X-IZ-CD95L; …) not shown | 3 and 2
